Reference: patent publication US20250197486A1 (Novartis, published 2025)

Molecular target: T1, human VEGF165 (human, UniProt P15692 27-191)
T1 construct: mature; The canonical UniProt entry is a longer isoform, so the VEGF165 isoform must be chosen; also called recombinant VEGF165 protein; VEGF-A
Assay: SPR, in vitro, recombinant VEGF165, 37 °C
Experimental: The brolucizumab: VEGF binding parameter values (Table 8) were defined on the basis of a surface plasmon resonance (SPR) in vitro binding experiment with drug and recombinant VEGF165 protein at 37° C. These in vitro measured brolucizumab: VEGF binding parameter values were then scaled similar to ranibizumab to obtain in vivo estimates. […] The scaling is performed such that the koff is kept constant and the kon is divided by the scaling factor.

T1 sequence (P15692 other isoform, or with tags, fused parts or gaps): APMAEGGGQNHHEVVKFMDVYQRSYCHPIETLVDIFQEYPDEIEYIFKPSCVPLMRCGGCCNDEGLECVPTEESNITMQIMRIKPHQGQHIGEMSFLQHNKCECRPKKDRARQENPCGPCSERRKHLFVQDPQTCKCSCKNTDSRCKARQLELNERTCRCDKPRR

B1: brolucizumab (scFv)
scFv: MEIVMTQSPSTLSASVGDRVIITCQASEIIHSWLAWYQQKPGKAPKLLIYLASTLASGVPSRFSGSGSGAEFTLTISSLQPDDFATYYCQNVYLASTNGANFGQGTKLTVLGGGGGSGGGGSGGGGSGGGGSEVQLVESGGGLVQPGGSLRLSCTASGFSLTDYYYMTWVRQAPGKGLEWVGFIDPDDDPYYATWAKGRFTISRDNSKNTLYLQMNSLRAEDTAVYYCAGGDHNSGWGLDIWGQGTLVTVSS
notes: Humanized scFv of about 26 kDa, VL-linker-VH; also called Beovu; drug
Kd: 0.101 nM
koff: 0.00025 s⁻¹
kon: 2.5e+06 M⁻¹ s⁻¹
